B1: NEK8 (parent)
chain: VVGTPCYISPELCEGKPYNQKSDI
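Also: lentivirally expressed fusions sorted by FACS into six bins by GFP to DsRed ratio, PSI derived from sequencing read proportions per bin multiplied by bin number.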

Variants of B1 are the subject of the series. The series is described as follows: protein stability index of a GFP-peptide fusion (GPS, HEK-293T) (PSI 1-6); higher = more stable. Conditions: c terminus: a fixed tail appended.
VVGTPCYMSPELCEGKPYNQKSDI: the protein stability index amounted to 2.89. The figure for VVGTPCYDSPELCEGKPYNQKSDI is 4.18. As to VVGTPCYESPELCEGKPYNQKSDI, the protein stability index is 4.5. As for VVGTPCYCSPELCEGKPYNQKSDI, the protein stability index amounted to 3.05. The figure for VVGTPCYFSPELCEGKPYNQKSDI is 2.9; for VVGTPCYKSPELCEGKPYNQKSDI it is 4.14. The figure for VVGTPCYSSPELCEGKPYNQKSDI is 3.98; for VVGTPCYGSPELCEGKPYNQKSDI it is 4.42; for VVGTPCYQSPELCEGKPYNQKSDI it is 4.42. The value for VVGTPCYASPELCEGKPYNQKSDI was 4.4; that for VVGTPCYRSPELCEGKPYNQKSDI was 3.7; that for VVGTPCYPSPELCEGKPYNQKSDI was 4.29. Turning to VVGTPCYVSPELCEGKPYNQKSDI, the protein stability index amounted to 4.03. The figure for VVGTPCYNSPELCEGKPYNQKSDI is 4.4; for VVGTPCYYSPELCEGKPYNQKSDI it is 2.31. The value for VVGTPCYHSPELCEGKPYNQKSDI was 3.2. The figure for VVGTPCYWSPELCEGKPYNQKSDI is 2.27; for VVGTPCYTSPELCEGKPYNQKSDI it is 3.77. With VVGTPCYLSPELCEGKPYNQKSDI, the protein stability index is 3.48. The figure for VVGEPCYISPELCEGKPYNQKSDI is 4.08; for VVGNPCYISPELCEGKPYNQKSDI it is 3.87; for VVGPPCYISPELCEGKPYNQKSDI it is 3.46. The value for VVGFPCYISPELCEGKPYNQKSDI was 2.21.

With VVGWPCYISPELCEGKPYNQKSDI, the protein stability index amounted to 2.13. As to VVGMPCYISPELCEGKPYNQKSDI, the protein stability index was 2.78. The value for VVGGPCYISPELCEGKPYNQKSDI was 3.34; that for VVGCPCYISPELCEGKPYNQKSDI was 2.85. Consider VVGYPCYISPELCEGKPYNQKSDI, for which the protein stability index stood at 2.25. As for VVGLPCYISPELCEGKPYNQKSDI, the protein stability index came out at 2.39. With VVGRPCYISPELCEGKPYNQKSDI, the protein stability index came out at 2.79. The value for VVGIPCYISPELCEGKPYNQKSDI was 1.75; that for VVGHPCYISPELCEGKPYNQKSDI was 3.02.

Turning to VVGKPCYISPELCEGKPYNQKSDI, the protein stability index was 3.45. The figure for VVGSPCYISPELCEGKPYNQKSDI is 3.68; for VVGDPCYISPELCEGKPYNQKSDI it is 3.72. The figure for VVGAPCYISPELCEGKPYNQKSDI is 2.95; for VVGQPCYISPELCEGKPYNQKSDI it is 4.19. The value for VVGVPCYISPELCEGKPYNQKSDI was 1.99. For the variant VVGTPCYISIELCEGKPYNQKSDI, the protein stability index was 1.49. The value for VVGTPCYISFELCEGKPYNQKSDI was 2.03.

VVGTPCYISQELCEGKPYNQKSDI: the protein stability index worked out at 3.49. The figure for VVGTPCYISVELCEGKPYNQKSDI is 1.75. The figure for VVGTPCYISSELCEGKPYNQKSDI is 3.39.

On to VVGTPCYISNELCEGKPYNQKSDI, for which the protein stability index turned out to be 3.44. The value for VVGTPCYISLELCEGKPYNQKSDI was 2.01; that for VVGTPCYISRELCEGKPYNQKSDI was 2.98; that for VVGTPCYISGELCEGKPYNQKSDI was 3.56. The figure for VVGTPCYISYELCEGKPYNQKSDI is 1.91.

In the case of VVGTPCYISHELCEGKPYNQKSDI, the protein stability index worked out at 3.66. The value for VVGTPCYISEELCEGKPYNQKSDI was 3.6. In the case of VVGTPCYISTELCEGKPYNQKSDI, the protein stability index was found to be 2.74. The figure for VVGTPCYISDELCEGKPYNQKSDI is 3.23; for VVGTPCYISKELCEGKPYNQKSDI it is 3.56; for VVGTPCYISCELCEGKPYNQKSDI it is 2.22.

With VVGTPCYISMELCEGKPYNQKSDI, the protein stability index came to 2.24. For VVGTPCYISAELCEGKPYNQKSDI, the protein stability index amounted to 2.96. The figure for VVGTPCYISWELCEGKPYNQKSDI is 1.9; for VVVTPCYISPELCEGKPYNQKSDI it is 2.07; for VVYTPCYISPELCEGKPYNQKSDI it is 1.65. Turning to VVWTPCYISPELCEGKPYNQKSDI, the protein stability index is 2.05. The value for VVGTPCYISPELNEGKPYNQKSDI was 3.23. The value for VVGTPCYISPELQEGKPYNQKSDI was 2.79; that for VVGTPCYISPELEEGKPYNQKSDI was 2.98. The figure for VVGTPCYISPELGEGKPYNQKSDI is 3.08.

With VVGTPCYISPELMEGKPYNQKSDI, the protein stability index was 2.79. Take VVGTPCYISPELDEGKPYNQKSDI: the protein stability index was 3.34.

Consider VVGTPCYISPELFEGKPYNQKSDI, for which the protein stability index was 2.19. The figure for VVGTPCYISPELAEGKPYNQKSDI is 2.71.

As to VVGTPCYISPELKEGKPYNQKSDI, the protein stability index is 3.38. Take VVGTPCYISPELPEGKPYNQKSDI: the protein stability index worked out at 2.3. The figure for VVGTPCYISPELREGKPYNQKSDI is 3.27; for VVGTPCYISPELIEGKPYNQKSDI it is 2.48. As for VVGTPCYISPELHEGKPYNQKSDI, the protein stability index was determined as 2.92. The figure for VVGTPCYISPELLEGKPYNQKSDI is 2.88; for VVGTPCYISPKLCEGKPYNQKSDI it is 2.74. With VVGTPCYISPLLCEGKPYNQKSDI, the protein stability index was 1.8. The value for VVGTPCYISPILCEGKPYNQKSDI was 2.52; that for VVGTPCYISPRLCEGKPYNQKSDI was 2.49; that for VVGTPCYISPQLCEGKPYNQKSDI was 2.31. The value for VVGTPCYISPGLCEGKPYNQKSDI was 2.54; that for VVGTPCYISPFLCEGKPYNQKSDI was 1.5; that for VVGTPCYISPALCEGKPYNQKSDI was 2.68.

Take VVGTPCYISPDLCEGKPYNQKSDI: the protein stability index was 3.16.

Turning to VVGTPCYISPYLCEGKPYNQKSDI, the protein stability index was 2.05. The figure for VVGTPCYISPCLCEGKPYNQKSDI is 1.68; for VVGTPCYISPVLCEGKPYNQKSDI it is 1.59; for VVGTPCYISPHLCEGKPYNQKSDI it is 2.03.

Take VVGTPCYISPMLCEGKPYNQKSDI: the protein stability index was found to be 2.32. For the variant VVGTPCYISPSLCEGKPYNQKSDI, the protein stability index stood at 2.7. For the variant VVGTPCYISPWLCEGKPYNQKSDI, the protein stability index amounted to 1.08.

For VVGTPCYISPPLCEGKPYNQKSDI, the protein stability index turned out to be 1.76. The value for VVGTPCYISPTLCEGKPYNQKSDI was 2.48; that for VVGTPCYISPNLCEGKPYNQKSDI was 2.66; that for VVGTPCVISPELCEGKPYNQKSDI was 4.04.

These data come from the supplement of paper PMC10567573.
